The nanobody polyreactivity screen of Harvey et al. (2022)

Experiment: yeast display, Sf9 membrane polyspecificity reagent, FACS + sequencing; frameworks hold sequencing errors
Outline: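 Galactose induction of a Saccharomyces cerevisiae BJ5465 synthetic nanobody display library ran 36–48 hours. The cells were then stained for 1 hour at 4 °C with 10% biotinylated, detergent-solubilized Sf9 membrane reagent, pulled down on streptavidin microbeads and FACS-sorted into low and high (top ~1%) gates on expression and reagent-binding fluorescence. Labels for polyreactivity follow the gate of origin.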

QVQLVESGGGLVQAGGSLRLSCAASGRIFGKYVMGWYRQAPGKERELVAGISWSAGSTYYADSVKGRYTISRDNAKYTVYLQMNSLKPEDTAVYYCAAGLEGGYDYWGQGTQVTVSS
polyreactivity (PSR sort gate): low polyreactivity

QVQHVESGAGLVQAGGSLRLSCAASGSTFFRANAMGLDRQEPGKERELVAAITGSGGRTYYADSVKGRFTISRDNAKNTVYLQMNSLKPEDTAVYYCATHGVSRPYDYWGPGTQVTVSS
polyreactivity (PSR sort gate): high polyreactivity

QVQLVESGGGLVQARGSLRLSCAASGFTFYSNAMGWYRQAPGKERELVAVINSDDDSTYYADSVKGRFTISRDNAKNTVYLQMNSLKPEDTAVYYCNKVWRVGKYPYSDRYYFGGGYWGQGTQVTVSS
polyreactivity (PSR sort gate): high polyreactivity

QVQLVESGGCLVQAGCSLRLSCAASGSTFYSYAMGWYRQAPGKERELVAAINWDGVSTYYADSVKGRFTISRDNAKNTVYLQMNSMKPEDTAVYFCAAELFYGYRISGTYYYWGQGTQVTVSS
polyreactivity (PSR sort gate): low polyreactivity

QVQLVESGGGLVQAGGSLRLSCAASGSILFNNAMGWYRQAPGKERELVAAIRSNGGNTYYADSVKGRFTISCDNAKNTVYLQMNSLKPEDTAVYYCAAEKTLYGGGGWTRWFHYTYGYWGQGTQVTVSS
polyreactivity (PSR sort gate): high polyreactivity

QVQLVESGGGLVQAGGSLRLRCAASGSIFVYYAMGWYRQAPGKERELVAAITWRGDNTYYADSVKGRFTISRDNAKNSVYLQMNSLKPEDTAVYYCAADSYTSIFDYWGQGTQVTVSS
polyreactivity (PSR sort gate): low polyreactivity

QVQLVESGGGLVQAGGSLRLSCAASGFTFDYNAMGWYRQAPGKERELVAAISASGGSTYYADSVKGRYTISRDTAKNTVYLQMNSLKPEYTAVYYCAAKRFSPQHRYDHWGQGTQVTVSS
polyreactivity (PSR sort gate): high polyreactivity

QVQLVESGGGLVQAGGILRLSCAASGSTFGDYTMGWYRHAPGKERELVAAITLTGGSTFYSDSVKGRFTISRDNAKNTVYLQMNSLKPVDTAVYYCNTDVIRWVGGTWHRYYYWGQGTQVTVSS
polyreactivity (PSR sort gate): low polyreactivity

QVQLVESGGGLVQAGGSLRLSCAASGLILGSYAMGWYRQAPGKERELVAGISWSGGDTYYADSVKGRFTISRDNAKNTVYLQMNSLKPEDTAVYYCNTGGTFLDWVRRPFGFGYWGQGTQVTVSS
polyreactivity (PSR sort gate): low polyreactivity

QVQLVESGGGLVQAGGSLRLSCAASGSTFYIYAMGWYRQAPGKDRELVAAISGRGGSTYYADSVKGRFTISRDNAKNTVYLQMNSLKPEDTAVYYCATYSRQDHKYDYWGQGTQVTVSS
polyreactivity (PSR sort gate): high polyreactivity

QVQLVESGGGLVQAGGSLRLSCAASGRIFTPYAMGWYRQAPGKEREFVATISFRGDSTYYADSVKGRFTISRDNAKNTVYLQMNSLKPEDTAVYYCNAATNRRTSDYWGQGTQVTVSS
polyreactivity (PSR sort gate): high polyreactivity

QVQLVESGGGLVQAGGSLRLSCAASGITIREYAMGWYRQAPGKERELVASISGGGGSTSYADSVKGRFTISRDNAKNTVYLQMNSLKPEDTAVYYCATRYAIAGWVGYYYWGQGTQVTVSS
polyreactivity (PSR sort gate): low polyreactivity

QVQLVESGGGLVQAGGSLRLSCAASGRIFYPYAMGWYRPAPGKERELVAVINGSGGSTYYADSVKGRFTISRDNAKNTVYLPMNSLKPEDTAVYYCAADYPKTYTSKFNYWGQGTQVTVSS
polyreactivity (PSR sort gate): high polyreactivity

QVQLGESGGGLVQAGGSLLLSSAASGFIFHNYPMGWYRQAPVKERELVAAISWSGSRTYYADSVKGRFTISRDNAKNSVYLQMNSLKPEDTAVYYCNKAPSWWDVRVPFDYWGQGTQVTVSS
polyreactivity (PSR sort gate): low polyreactivity

QVQLVESGGGLVQAGGSLRLSCAASGRIYNRNAMGWYRQAPGKERDLVAAITYRGGSTYYADSVKGRFTISRDNAKNTVCLQMNSLKPEDTAVYYCAKDVKQWSVSASYRFGYWGQGTQVTVSS
polyreactivity (PSR sort gate): high polyreactivity

QVQLVESGGGLVQAGGSLRLSCAASGIIFDEYAMGWYRQAPGKERELVAAISSRGTNTYYADSVKGRFTISRDHAKNTVYLQMNSLKPEDTAVYYCAARRPPVTRHFGYWGQGTQVTVSS
polyreactivity (PSR sort gate): high polyreactivity

QVQLVESGGGLVQAGGSLRLSCAASGLIFRYYAMGWYSKAPGKERELVAVINYSGGRTYYADSVKGRFTISRDNAKNTVYLQMNSLKPEDTAVYYCAASFASKYEYWGQGTQVTVSS
polyreactivity (PSR sort gate): high polyreactivity

QVQVEESGGGLVQAGGSLRLSCAASGSIFNRYAMGWYRQAPGKERELVAAISRSGSTYYADSVKGRFTISRDNAKNTVYLQMNSLKAEDTEVYYCNARGTTHHTSYDYWGQGTQVTVSS
polyreactivity (PSR sort gate): low polyreactivity

QVQLVESGGGLVQAGGSLRLSCAASGRTFYINAMGWYRQAPGKERELVATISRSGGDTYYADSVKGRFTISRDNAKNTVYLQMNSLKPEDTAVYYCYARQYYYRSGAYASRYLYNYWGQGTQVTVSS
polyreactivity (PSR sort gate): high polyreactivity

QVQLVESGGGLVQAGGSLRLTCAASGRTFYVNAMGWYRQAHGKERELVATISRGGSTHYADSVKGRFTISRDNAKYTVYLQLNSLKPEDTAVYYCAAPGRTSVYRYYYWGQGTQVTVSS
polyreactivity (PSR sort gate): high polyreactivity

QFQLVESGGGLVQAGGSLRLSCAASGSTFIYNTMGWYRQAPGKERELVATIRRSGGITYYADSVKGRFTISRDNAKNTVYLQMNSLKPEDTAVYYCNAKPNRYSAKIVQYDSWGQGTQVTVSS
polyreactivity (PSR sort gate): low polyreactivity

QVQLVESGGGLVQAGGSLRLSCAASGRIYSVYTMGWYRQAPGKERELVATISSGGRTNYADSVKGRFTISRDNAKNTVYLQMNSLKPEDTAVYYCAADWVYPPGLKDSVHFGEYDYWGQGTQVTVSS
polyreactivity (PSR sort gate): low polyreactivity

QVQLVESGGGLVQAGGSLRLSCAASGSIFGKYAMGWYRQAPGKERELVAAISDSGSITYYADSVKGRFTISRDNAKNTVYLQMNSLKPEDTAVYYCAAERYLLWGFEENYWGQGTQVTVSS
polyreactivity (PSR sort gate): high polyreactivity

QVQLVESGGGLVQAGGSLRLSCAASGRTFYPNAMGWYRQAPGKEREFVARISDSGGYTYYADSVKGRFTISRDNAKNTVYLQMNSLKPEDTAVYYCAADYGDPRVNEYDYWGQGTQVTVSS
polyreactivity (PSR sort gate): low polyreactivity

QVQLVESGGGLVKAGGSLRLSCAASGRIFYLNAMGWYRQAPGKERELVAGIRKRGGSTYYADSVKGRFTISRDNAKNTVYLQMNSLKPEDTAVYYSAGQPALTYRFYYWGQGTQVTVSS
polyreactivity (PSR sort gate): high polyreactivity

QVQLVESGGGLVQAGGSLRLRCAASGINFGYYAMGWYRQAPGKERELVAAITSGASTDYADSVKGRFTISRDNAKNTVYLQMNSLKPEDTAVYYCNADTSASTYTFPFDYCGQGTQVTVSS
polyreactivity (PSR sort gate): low polyreactivity

QVQRVESGGGLVQAGGSLRLSCPASGRIFRYYAMGWYRPAPGKEREMVARITRNGGTTYYADSVKGRFTISRDNAKNTVYLQMNSLKPEDTAVYYCAATYSVPYYGAWPEYDYWGQGTQVTVSS
polyreactivity (PSR sort gate): high polyreactivity

QVQLVESGGGLVQAGGSLRLSCAASGITFDYYAMGWYRQAPGKERELVADISSSGGSTYYADSVKGRFTISRDNAKNSVYLQMNSLKPEDTAVYYCAAVVTKYPTTGFGYWGQGTQVTVSS
polyreactivity (PSR sort gate): high polyreactivity

QVQLVESGGGLVHAGGCLRISCAASGRIFWYNEMGWYRQATGKERELVADITPRGTRTHYADSVKGRFTISRDNAKNTVYLQMNSLKPEDPGVYYCAKGWYTVDWDAPVFSERGEYWGQGSQVTVSS
polyreactivity (PSR sort gate): low polyreactivity

QVQLVESGGGLVQAGGSLRLSCAASGGTFRVYTMGWYRQAPGKERELVAAIILRGGGTYYADSVKGRFTISRDNAKNPVYLQMNSLNPEDTAVYYCNARSGNRYGPRYDYWGQGTQVTVSS
polyreactivity (PSR sort gate): high polyreactivity

HVQLVESGGGLVQAGGSLRLSCAASGSTFGYYTMGWYREAPGKERELVAAISWSGGSTYYADSVKGRFTISRDNAKNTVYLQMNRLKPEDTAVYYCAALGYTYKYYSYYWGQGTQVTVSS
polyreactivity (PSR sort gate): high polyreactivity
